Measured values as given in IntAct's records for PubMed 32296183.

B1: Golgi SNAP receptor complex member 2 (Homo sapiens), O14653 (parent)
chain: MDPLFQQTHKQVHEIQSCMGRLETADKQSVHIVENEIQASIDQIFSRLERLEILSSKEPPNKRQNARLRVDQLKYDVQHLQTALRNFQHRRHAREQQERQREELLSRTFTTNDSDTTIPMDESLQFNSSLQKVHNGMDDLILDGHNILDGLRTQRLTLKGTQKKILDIANMLGLSNTVMRLIEKRAFQDKYFMIGGMLLTCVVMFLVVQYLT
B2: Catenin alpha-3 (Homo sapiens), Q9UI47-2 (parent)
chain: MSAETPITLNIDPQDLQVQTFTVEKLLEPLIIQVTTLVNCPQNPSSRKKGRSKRASVLLASVEEATWNLLDKGEKIAQEATVLKDELTASLEEVRKESEALKVSAERFTDDPCFLPKREAVVQAARALLAAVTRLLILADMIDVMCLLQHVSAFQRTFESLKNVANKSDLQKTYQKLGKELENLDYLAFKRQQDLKSPNQRDEIAGARASLKENSPLLHSICSACLEHSDVASLKASKDTVCEEIQNALNVISNASQGIQNMTTPPEPQAATLGSALDELENLIVLNPLTVTEEEIRPSLEKRLEAIISGAALLADSSCTRDLHRERIIAECNAIRQALQDLLSEYMNNAGKKERSNTLNIALDNMCKKTRDLRRQLRKAIIDHVSDSFLDTTVPLLVLIEAAKNGREKEIKEYAAIFHEHTSRLVEVANLACSMSTNEDGIKIVKIAANHLETLCPQIINAALALAARPKSQAVKNTMEMYKRTWENHIHVLTEAVDDITSIDDFLAVSGMFLFF
partner: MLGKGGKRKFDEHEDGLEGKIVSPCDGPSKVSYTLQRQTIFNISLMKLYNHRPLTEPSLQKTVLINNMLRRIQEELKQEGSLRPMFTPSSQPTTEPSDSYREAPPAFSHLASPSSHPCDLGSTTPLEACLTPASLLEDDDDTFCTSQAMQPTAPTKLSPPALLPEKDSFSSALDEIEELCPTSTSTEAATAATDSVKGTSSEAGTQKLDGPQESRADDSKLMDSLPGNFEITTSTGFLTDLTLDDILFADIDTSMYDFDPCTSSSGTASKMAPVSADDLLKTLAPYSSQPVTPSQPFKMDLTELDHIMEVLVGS
B3: Transmembrane protein 43 (Homo sapiens), Q9BTV4 (parent)
chain: MAANYSSTSTRREHVKVKTSSQPGFLERLSETSGGMFVGLMAFLLSFYLIFTNEGRALKTATSLAEGLSLVVSPDSIHSVAPENEGRLVHIIGALRTSKLLSDPNYGVHLPAVKLRRHVEMYQWVETEESREYTEDGQVKKETRYSYNTEWRSEIINSKNFDREIGHKNPSAMAVESFMATAPFVQIGRFFLSSGLIDKVDNFKSLSLSKLEDPHVDIIRRGDFFYHSENPKYPEVGDLRVSFSYAGLSGDDPDLGPAHVVTVIARQRGDQLVPFSTKSGDTLLLLHHGDFSAEEVFHRELRSNSMKTWGLRAAGWMAMFMGLNLMTRILYTLVDWFPVFRDLVNIGLKAFAFCVATSLTLLTVAAGWLFYRPLWALLIAGLALVPILVARTRVPAKKLE
partner: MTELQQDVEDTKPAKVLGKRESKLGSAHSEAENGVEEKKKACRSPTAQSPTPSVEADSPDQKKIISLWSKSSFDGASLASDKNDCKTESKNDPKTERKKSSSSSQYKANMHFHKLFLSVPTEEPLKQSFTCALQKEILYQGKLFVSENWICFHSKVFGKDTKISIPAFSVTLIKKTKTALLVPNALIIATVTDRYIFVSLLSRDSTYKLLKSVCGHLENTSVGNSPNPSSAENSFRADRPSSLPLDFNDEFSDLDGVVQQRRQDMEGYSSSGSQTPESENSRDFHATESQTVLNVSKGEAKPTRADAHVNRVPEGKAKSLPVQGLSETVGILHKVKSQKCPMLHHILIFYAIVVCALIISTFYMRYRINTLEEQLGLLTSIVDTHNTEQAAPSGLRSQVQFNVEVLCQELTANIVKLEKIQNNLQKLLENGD

Variants of: B1
Settings: with stx4_human STX4, Q12846
Chain of stx4_human STX4, Q12846 (Q12846 whole entry): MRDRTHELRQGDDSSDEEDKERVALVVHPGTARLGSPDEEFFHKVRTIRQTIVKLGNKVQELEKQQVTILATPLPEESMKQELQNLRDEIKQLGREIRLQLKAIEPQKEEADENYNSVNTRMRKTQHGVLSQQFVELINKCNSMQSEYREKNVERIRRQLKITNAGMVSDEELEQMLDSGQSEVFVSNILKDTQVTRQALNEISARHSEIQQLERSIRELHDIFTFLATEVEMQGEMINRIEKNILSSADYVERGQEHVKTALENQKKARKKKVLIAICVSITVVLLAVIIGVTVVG

| Variant | effect of a mutation on the interaction |
| --- | --- |
| MDPLFQQTHKQVHEIQSCMGRLETADKQSVHIVENEIQASIDQIFSRLERLEILSSKEPPNKRQNARLRVDQLKYDVQHLQTALRNFQHRRHAREQQERQREELLSRTFTTNDSDTTIPMDESLQFNSSLQKVHNGMDDLILDWHNILDGLRTQRLTLKGTQKKILDIANMLGLSNTVMRLIEKRAFQDKYFMIGGMLLTCVVMFLVVQYLT [G144W] | with no effect |

Variants of: B1
Settings: with stx1a_human STX1A

| Variant | effect of a mutation on the interaction |
| --- | --- |
| MDPLFQQTHKQVHEIQSCMGRLETADKQSVHIVENEIQASIDQIFSRLERLEILSSKEPPNKRQNARLRVDQLKYDVQHLQTALRNFQHRRHAREQQERQREELLSRTFTTNDSDTTIPMDESLQFNSSLQKVHNGMDDLILDWHNILDGLRTQRLTLKGTQKKILDIANMLGLSNTVMRLIEKRAFQDKYFMIGGMLLTCVVMFLVVQYLT [G144W] | with no effect |

Variants of: B1
Settings: with retr3_human RETREG3, Q86VR2
Chain of retr3_human RETREG3, Q86VR2 (Q86VR2 whole entry): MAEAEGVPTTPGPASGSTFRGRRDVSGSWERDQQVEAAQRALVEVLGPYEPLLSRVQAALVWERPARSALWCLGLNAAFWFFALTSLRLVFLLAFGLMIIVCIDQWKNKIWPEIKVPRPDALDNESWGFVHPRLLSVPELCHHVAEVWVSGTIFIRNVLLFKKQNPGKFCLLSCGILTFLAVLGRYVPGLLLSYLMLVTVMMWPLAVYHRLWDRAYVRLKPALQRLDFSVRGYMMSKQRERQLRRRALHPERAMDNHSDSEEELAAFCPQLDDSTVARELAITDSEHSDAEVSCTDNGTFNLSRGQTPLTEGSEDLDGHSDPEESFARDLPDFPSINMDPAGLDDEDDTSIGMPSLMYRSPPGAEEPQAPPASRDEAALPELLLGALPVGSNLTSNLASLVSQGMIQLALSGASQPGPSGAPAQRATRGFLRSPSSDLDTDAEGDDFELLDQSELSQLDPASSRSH

| Variant | effect of a mutation on the interaction |
| --- | --- |
| MDPLFQQTHKQVHEIQSCMGRLETADKQSVHIVENEIQASIDQIFSRLERLEILSSKEPPNKRQNARLRVDQLKYDVQHLQTALRNFQHRRHAREQQERQREELLSRTFTTNDSDTTIPMDESLQFNSSLQKVHNGMDDLILDWHNILDGLRTQRLTLKGTQKKILDIANMLGLSNTVMRLIEKRAFQDKYFMIGGMLLTCVVMFLVVQYLT [G144W] | with no effect |

Variants of: B1
Settings: with tm205_human TMEM205, Q6UW68
Chain of tm205_human TMEM205, Q6UW68 (Q6UW68 whole entry): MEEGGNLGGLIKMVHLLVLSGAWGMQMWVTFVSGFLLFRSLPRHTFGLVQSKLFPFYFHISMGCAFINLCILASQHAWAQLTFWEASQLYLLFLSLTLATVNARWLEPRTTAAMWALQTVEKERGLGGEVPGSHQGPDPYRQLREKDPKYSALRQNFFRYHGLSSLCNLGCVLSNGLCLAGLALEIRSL

| Variant | effect of a mutation on the interaction |
| --- | --- |
| MDPLFQQTHKQVHEIQSCMGRLETADKQSVHIVENEIQASIDQIFSRLERLEILSSKEPPNKRQNARLRVDQLKYDVQHLQTALRNFQHRRHAREQQERQREELLSRTFTTNDSDTTIPMDESLQFNSSLQKVHNGMDDLILDWHNILDGLRTQRLTLKGTQKKILDIANMLGLSNTVMRLIEKRAFQDKYFMIGGMLLTCVVMFLVVQYLT [G144W] | with no effect |

Variants of: B1
Settings: with ebp_human EBP

| Variant | effect of a mutation on the interaction |
| --- | --- |
| MDPLFQQTHKQVHEIQSCMGRLETADKQSVHIVENEIQASIDQIFSRLERLEILSSKEPPNKRQNARLRVDQLKYDVQHLQTALRNFQHRRHAREQQERQREELLSRTFTTNDSDTTIPMDESLQFNSSLQKVHNGMDDLILDWHNILDGLRTQRLTLKGTQKKILDIANMLGLSNTVMRLIEKRAFQDKYFMIGGMLLTCVVMFLVVQYLT [G144W] | with no effect |

Variants of: B1
Settings: with gp152_human GPR152, Q8TDT2
Chain of gp152_human GPR152, Q8TDT2 (Q8TDT2 whole entry): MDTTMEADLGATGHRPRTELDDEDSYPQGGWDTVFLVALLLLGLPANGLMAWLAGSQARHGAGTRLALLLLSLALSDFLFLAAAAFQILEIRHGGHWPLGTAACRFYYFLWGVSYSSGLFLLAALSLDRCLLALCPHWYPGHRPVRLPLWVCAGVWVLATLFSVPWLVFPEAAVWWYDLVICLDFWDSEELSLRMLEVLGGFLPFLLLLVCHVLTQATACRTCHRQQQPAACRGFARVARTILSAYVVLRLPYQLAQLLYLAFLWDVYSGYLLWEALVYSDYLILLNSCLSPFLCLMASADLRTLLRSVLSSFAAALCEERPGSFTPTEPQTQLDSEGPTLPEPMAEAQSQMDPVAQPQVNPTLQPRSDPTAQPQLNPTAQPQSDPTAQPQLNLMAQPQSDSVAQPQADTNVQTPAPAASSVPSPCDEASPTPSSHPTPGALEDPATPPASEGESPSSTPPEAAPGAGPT

| Variant | effect of a mutation on the interaction |
| --- | --- |
| MDPLFQQTHKQVHEIQSCMGRLETADKQSVHIVENEIQASIDQIFSRLERLEILSSKEPPNKRQNARLRVDQLKYDVQHLQTALRNFQHRRHAREQQERQREELLSRTFTTNDSDTTIPMDESLQFNSSLQKVHNGMDDLILDWHNILDGLRTQRLTLKGTQKKILDIANMLGLSNTVMRLIEKRAFQDKYFMIGGMLLTCVVMFLVVQYLT [G144W] | with no effect |

Variants of: B1
Settings: with ar13b_human ARL13B

| Variant | effect of a mutation on the interaction |
| --- | --- |
| MDPLFQQTHKQVHEIQSCMGRLETADKQSVHIVENEIQASIDQIFSRLERLEILSSKEPPNKRQNARLRVDQLKYDVQHLQTALRNFQHRRHAREQQERQREELLSRTFTTNDSDTTIPMDESLQFNSSLQKVHNGMDDLILDWHNILDGLRTQRLTLKGTQKKILDIANMLGLSNTVMRLIEKRAFQDKYFMIGGMLLTCVVMFLVVQYLT [G144W] | disrupting interaction strength |

Variants of: B2
Settings: with srtd2_human SERTAD2, Q14140

| Variant | effect of a mutation on the interaction |
| --- | --- |
| MSAETPITLNIDPQDLQVQTFTVEKLLEPLIIQVTTLVNCPQNPSSRKKGRSKRASVLLASVEEATWNLLDKGEKIAQEATVLKDELTASLEEDRKESEALKVSAERFTDDPCFLPKREAVVQAARALLAAVTRLLILADMIDVMCLLQHVSAFQRTFESLKNVANKSDLQKTYQKLGKELENLDYLAFKRQQDLKSPNQRDEIAGARASLKENSPLLHSICSACLEHSDVASLKASKDTVCEEIQNALNVISNASQGIQNMTTPPEPQAATLGSALDELENLIVLNPLTVTEEEIRPSLEKRLEAIISGAALLADSSCTRDLHRERIIAECNAIRQALQDLLSEYMNNAGKKERSNTLNIALDNMCKKTRDLRRQLRKAIIDHVSDSFLDTTVPLLVLIEAAKNGREKEIKEYAAIFHEHTSRLVEVANLACSMSTNEDGIKIVKIAANHLETLCPQIINAALALAARPKSQAVKNTMEMYKRTWENHIHVLTEAVDDITSIDDFLAVSGMFLFF [V94D] | disrupting interaction strength |

Variants of: B3
Settings: with grm2b_human GRAMD2B

| Variant | effect of a mutation on the interaction |
| --- | --- |
| MAANYSSTSTRREHVKVKTSSQPGFLERLSETSGGMFVGLMAFLLSFYLIFTNEGRALKTATSLAEGLSLVVSPDSIHSVAPENKGRLVHIIGALRTSKLLSDPNYGVHLPAVKLRRHVEMYQWVETEESREYTEDGQVKKETRYSYNTEWRSEIINSKNFDREIGHKNPSAMAVESFMATAPFVQIGRFFLSSGLIDKVDNFKSLSLSKLEDPHVDIIRRGDFFYHSENPKYPEVGDLRVSFSYAGLSGDDPDLGPAHVVTVIARQRGDQLVPFSTKSGDTLLLLHHGDFSAEEVFHRELRSNSMKTWGLRAAGWMAMFMGLNLMTRILYTLVDWFPVFRDLVNIGLKAFAFCVATSLTLLTVAAGWLFYRPLWALLIAGLALVPILVARTRVPAKKLE [E85K] | with no effect |
| MAANYSSTSTRREHVKVKTSSQPGFLERLSETSGGMFVGLMAFLLSFYLIFTNEGRALKTATSLAEGLSLVVSPDSIHSVAPENEGRLVHVIGALRTSKLLSDPNYGVHLPAVKLRRHVEMYQWVETEESREYTEDGQVKKETRYSYNTEWRSEIINSKNFDREIGHKNPSAMAVESFMATAPFVQIGRFFLSSGLIDKVDNFKSLSLSKLEDPHVDIIRRGDFFYHSENPKYPEVGDLRVSFSYAGLSGDDPDLGPAHVVTVIARQRGDQLVPFSTKSGDTLLLLHHGDFSAEEVFHRELRSNSMKTWGLRAAGWMAMFMGLNLMTRILYTLVDWFPVFRDLVNIGLKAFAFCVATSLTLLTVAAGWLFYRPLWALLIAGLALVPILVARTRVPAKKLE [I91V] | with no effect |
